Read-outs that look alike come from different tables or passages of the source.
Tests used:
[1] = target: tubulin as used by Curmi et al. 1997; assay: plasmon resonance measurement; details: pH 6.5; cited from earlier work
[2] = target: Op18-Δ5-9-F (human); assay: pull-down
[3] = target: Op18-Δ5-9-F (human); assay: pull-down; remark: listed apart in the source

Free [tubulin] at half saturation of Op18 [2] [µM] | Kd1 (first tubulin heterodimer) [2] [µM] | Kd2 (second tubulin heterodimer) [2] [µM] | stoichiometry N (mol tubulin per mol) [2] | Kd1 (first tubulin heterodimer) [3] [µM] | Kd2 (second tubulin heterodimer) [3] [µM] | Substance | Kd [1] [µM]
– | – | – | – | – | – | stathmin/Op18 as used by Curmi et al. 1997 | 0.5
7.1 | 74 | 0.98 | 2.1 | 6.5 | 0.91 | tubulin heterodimer (bovine tubulin) (from UniProt Q6B856 1-445) (complex) | –

Reference: article PMC2156119
